Assay: label from the status in PepcDB records

Sequence	protein production
MTRQRIAIDMDEVLADTLGAVVKAVNERADLNIKMESLNGKKLKHMIPEHEGLVMDILKEPGFFRNLDVMPHAQEVVKQLNEHYDIYIATAAMDVPTSFHDKYEWLLEYFPFLDPQHFVFCGRKNIILADYLIDDNPKQLEIFEGKSIMFTASHNVYEHRFERVSGWRDVKNYFNSIEK	failed
MTRRALFGPKVAPLIQAASLTLALLLFLAACGPKGSYENVGPEELYEALAAGALVVDVRTPGEFAQGHVPGAINLPVEEVARWADRIPKDRPVYLYCRSGNRSRKAAEYLARKGYTNLYNVEGGVLAIARAGYPLVR	failed
MTRRGAQKASPSRAPGETALSTLYVTHPSAVEHVVPTGHPERPARMQAVERALEDERFAALVRCHAPRAEASVAELVHPASYVETIVAASPDEGFFQIDGDTLMSPGSLNTCLHAIGGSNHAVDAVMKGECANAFVAMRPPGHHAERDRAMGFCLFNHAAIAVRHAQKAFGATRVALVDFDVHHGNGSQDIFWADKTVMYASTHQMPLFPGSGATGERGDHDTIVNAPLKAFDGSELFREAFEARILPRLDAFAPDLIVISAGFDAHKLDPLANIQLDEADFGWATRRLMEVADRHAGGRVVSILEGGYSLDGLARSVAAHMDALMGR	failed
MTRRLVLMLALLSGSAGASGSFFTLLQTWQGLGHAPIAVSPDGRLLALTRPAPRTPAYAPYDTRIEVRDTAKMRRLYRVPAANGDGKTLLFSPDSRTLWSAHSGTLHYDAWTGKLADNREGSDGAGVSALAFAPGGQSYVLAGVNAVGQTRLVRVGVSPLRSFWPVTRPTAGDGMQPNWTSALAFSPDGRWVASGSVGGGVILRSSVTGRPLRVLADEPGQAPHRARLVDLLFLSPARLLSASADGQVRLWDAATGRALASLPCGERLGAVVQLPGGTRVVAATSRGLQLIETSGGRLRRLETVGGDYADVGVSAAGELWAITRGGTLSHWRLLSR	failed
MTRRRKILTGVLALVVLAAGGLAAARALGPGGTRVTAYFDRAIGVYAGSDLRILGVRVGEVESVDPEGTRVRVGLRLDDGIKVPEDARAVVVAPSVVADRYVQLTPAYRTGPALADGAVLPASRNHVPVEIDQIYDSITELGDALGPDGANADGALSELLRTGADNLDGNGEAIGDGVEQFGKAAKTLDGSSGDLFETLSSLQTFTTMLKNKDTDVRTAQERLDEVVSFFADNKDDLTGALEELGKALGQVKTFIEDNRGELKKNVDRLVPITRTLVEQRASLAEALDVAPLAADNVVNAYNPDTRTLDGRANLNEISSGGPLLPLPVAGTEKGEGRLEHHHHHH	not failed
MTRRVIALAGGATFKDIVRTMETQLISALPVIDSGSHVIGVVSEADVLRKEEFRDSDQLRGPRSRPPGALVKARAVTAEDLMTAPAVTVHPKAPVARAARLMARRRVKRLPVVDDEGVLQGIVSRADLLRVFLRSDPDIAEEVRREIVGGRFPEGLGSVRVEVHEGVVTLTGRVPDTSLVPLAERLVRSVEGVVDVRCVLTGPRHRMTGESEKAGAAAHRPGP	failed
MTRTMSFHKNCELCTTAGGEILWQDALCRVVHVENQDYPGFCRVILNRHVKEMSDLRPAERDHLMLVVFAVEEAVREVMRPDKINLASLGNMTPHVHWHVIPRFKRDRHFPNSVWGETKRESLPQALDQGSTTALKKAISVRLDQGEPVFMGM	not failed
MTRTSKIAVIGGGMAGLAAAAGFDDAGFVVELYERQSYDSKRVNCGEAMTAVSKIPLEPTVENGFLNPLPAMEVEVYDGIDADRHRTGAGTFPAADTYITDRNVVEQSWAEQLSEKGVDIHENQSITRTDFHEFTDEYDLVVDATGQPSLSSKALGTTNEYSGYMVALNSDVEGDFTELYPNSRIILENYTGYSWAFPKTSQRANVGIGWTVSDRPSDYMKALREACKRNGWPVPSQERTNVAIIPEGPSLDPDRTYLPEHSVVRVGDAAGIANRLTGKGISQAVESGFLAAELANSGQLHNFPDSLYQRMKTEYIFATVVRYFLETRNPKVLGAAIRAAAGIDIEDVDRSPSTVLLRLLRHPVLFARIFSRRRVLNRVYGGMTNQWELIN	failed
MTRVQANMLLLLAAAIWGGGFVAQSSAMSSIGPFWFVGLRFAIAAIAVLPFALMETRSLKSPPRRREIGSFILVGLALFGGATTQQVGLLTTTVTNSSFLTGLYVIFVPVIAVVLYRRHPHWVVWPCALMMLGGIFLLSGGAFETLTTGDILSIICAFFWAIQITLAGRFVSESGRPLALSFTQFAVCSLLSCMIGVVFEPISMAAIEASMMEILYVGLVSSGLAFVLQVIGQRYTTAPQAAIFLSSEALFGALMASIFLKETISSAGYVGCLIIFVAILIVELVPELTRKRQKTVAEAS	failed

Reference: a protein production outcome set (Wang et al. 2014)
